Data published in patent US7220569.

Target: T1, Factor X analogue with the furin cleavage site Arg-Arg-Lys-Arg/Ile (rFX^RRKR/I)
T1 chain 1: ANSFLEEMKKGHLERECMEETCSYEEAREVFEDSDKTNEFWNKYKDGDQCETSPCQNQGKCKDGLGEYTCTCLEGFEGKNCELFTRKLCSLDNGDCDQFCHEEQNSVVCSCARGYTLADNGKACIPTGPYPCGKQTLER
T1 chain 2: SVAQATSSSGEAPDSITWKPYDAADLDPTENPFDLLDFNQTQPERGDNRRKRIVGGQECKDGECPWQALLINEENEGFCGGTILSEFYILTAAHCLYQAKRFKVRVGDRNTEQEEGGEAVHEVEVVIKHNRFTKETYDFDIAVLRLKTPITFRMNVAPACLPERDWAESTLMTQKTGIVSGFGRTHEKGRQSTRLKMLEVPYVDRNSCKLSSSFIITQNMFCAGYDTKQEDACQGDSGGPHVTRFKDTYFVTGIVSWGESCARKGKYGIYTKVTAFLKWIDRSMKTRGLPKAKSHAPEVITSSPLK

B1: rfurin deltaCys-spacer-10xHis (purified r-furin derivative) (protein)
chain: DVYQEPTDPKFPQQWYLSGVTQRDLNVKAAWAQGYTGHGIVVSILDDGIEKNHPDLAGNYDPGASFDVNDQDPDPQPRYTQMNDNRHGTRCAGEVAAVANNGVCGVGVAYNARIGGVRMLDGEVTDAVEARSLGLNPNHIHIYSASWGPEDDGKTVDGPARLAEEAFFRGVSQGRGGLGSIFVWASGNGGREHDSCNCDGYTNSIYTLSISSATQFGNVPWYSEACSSTLATTYSSGNQNEKQIVTTDLRQKCTESHTGTSASAPLAAGIIALTLEANKNLTWRDMQHLVVQTSKPAHLNANDWATNGVGRKVSHSYGYGLLDAGAMVALAQNWTTVAPQRKCIIDILTEPKDIGKRLEVRKTVTACLGEPNHITRLEHAQARLTLSYNRRGDLAIHLVSPMGTRSTLLAARPHDYSADGFNDWAFMTTHSWDEDPSGEWVLEIENTSEANNYGTLTKFTLVLYGTAPEG
B1 was tested, and the FXa activity (mU/ml), chromogenic substrate S2337, incubation 0 hours was under 25 mU/ml, the FXa activity (mU/ml), chromogenic substrate S2337, incubation 6 hours was 56 mU/ml and the FXa activity (mU/ml), chromogenic substrate S2337, incubation 24 hours was 101 mU/ml. For the same protein, the FXa activity (mU/ml), chromogenic substrate S2337, incubation 48 hours was 124 mU/ml, the FXa activity (mU/ml), chromogenic substrate S2337, incubation 72 hours was 133 mU/ml and the “conversion of the heavy chain to the activated form after 72 hours at 37 C (Western blot)” value was “about 50% of the starting material (HC) have been converted to the activated form”. For the same protein, the specific activity (mU/µg), incubation 0 hours was 0 mU/µg, the specific activity (mU/µg), incubation 6 hours was 80 mU/µg and the specific activity (mU/µg), incubation 24 hours was 144 mU/µg. For the same protein, the specific activity (mU/µg), incubation 48 hours was 177 mU/µg and the specific activity (mU/µg), incubation 72 hours was 190 mU/µg.
